Patent US20180362585A1 (Bicycle, published 2018)
Numbered stars: 1 amine (or outer) side, 2 acyl side, 3 side chain; on linkers, the order of the positions; unused ones are H or OH. Bridge positions count the residues as written; N and C are the ends. Square brackets hold non-standard residues; d marks the D form. Ends that are not written are not given here. TBMB = c1c(C[*:1])cc(C[*:3])cc1C[*:2]; Sar = CNCC(=O)O

B1: 2A10 (peptide)
peptide: ACTYPYKCLHQNLCA
modifications: linker 2-8-14 via TBMB
B2: 06-64 T (peptide)
peptide: ACGVPYRCTHQEMCA
modifications: linker 2-8-14 via TBMB; not fully specified (N-terminus, C-terminus)
B3: 06-61 (peptide)
peptide: ACSWPYRCLHQDYCA
modifications: linker 2-8-14 via TBMB; not fully specified (N-terminus, C-terminus)
B4: 06-157 (peptide)
peptide: ACNWPYRCLHTDLCA
modifications: linker 2-8-14 via TBMB; not fully specified (N-terminus, C-terminus)
B5: 06-59 (peptide)
peptide: ACRWPARCLTTSLCA
modifications: linker 2-8-14 via TBMB; not fully specified (N-terminus, C-terminus)
B6: 06-63 T (peptide)
peptide: ACADPWACLFRRPCA
modifications: linker 2-8-14 via TBMB; not fully specified (N-terminus, C-terminus)
B7: 06-54 (2A2) T (peptide)
peptide: ACRWPARCTHQNYCA
modifications: linker 2-8-14 via TBMB; not fully specified (N-terminus, C-terminus)
B8: 06-34-01 (peptide)
peptide: ACSWPARCVHQDLCA
modifications: linker 2-8-14 via TBMB; not fully specified (N-terminus, C-terminus)
B9: 06-57 (peptide)
peptide: ACSWPARCNHQDLCA
modifications: linker 2-8-14 via TBMB; not fully specified (N-terminus, C-terminus)
B10: 06-34-03 (01 + 02) (peptide)
peptide: ACSWPARCTHQDLCA
modifications: linker 2-8-14 via TBMB; not fully specified (N-terminus, C-terminus)
B11: 06-34-02 (peptide)
peptide: ACRWPARCTHQDLCA
modifications: linker 2-8-14 via TBMB; not fully specified (N-terminus, C-terminus)
B12: 06-09 (peptide)
peptide: ACTWPARCTHQNWCA
modifications: linker 2-8-14 via TBMB; not fully specified (N-terminus, C-terminus)
B13: 06-A2* (peptide)
peptide: ACTWPARCTMQNWCA
modifications: linker 2-8-14 via TBMB; not fully specified (N-terminus, C-terminus)
B14: 1F7 (peptide)
peptide: ACGGYNNCRAFSYCA
modifications: linker 2-8-14 via TBMB; not fully specified (N-terminus, C-terminus)
B15: 1B1 (peptide)
peptide: ACAWPAKCLTRELCA
modifications: linker 2-8-14 via TBMB; not fully specified (N-terminus, C-terminus)
B16: 06-34-03 - Ala1,6 (peptide)
peptide: ACAWPARCAHQDLCA
modifications: linker 2-8-14 via TBMB; not fully specified (N-terminus, C-terminus)
notes: also called R1A/V6A
B17: 06-34-03 - N-MeGly1,6 (peptide)
peptide: AC[Sar]WPARC[Sar]HQDLCA
modifications: linker 2-8-14 via TBMB; not fully specified (N-terminus, C-terminus)
notes: also called AC(N-MeG)WPARC(N-MeG)HQDLCA
B18: CSHRRWCTHQDLC (peptide)
peptide: CSHRRWCTHQDLC
modifications: linker 1-7-13 via TBMB (inferred)
notes: on phage
B19: CSLFDHCTHQDLC (peptide)
peptide: CSLFDHCTHQDLC
modifications: linker 1-7-13 via TBMB
notes: on phage
B20: CSWPARCTHQDLC (peptide)
peptide: CSWPARCTHQDLC
modifications: linker 1-7-13 via TBMB
notes: on phage
B21: CSWLARCTHQDLC (peptide)
peptide: CSWLARCTHQDLC
modifications: linker 1-7-13 via TBMB
notes: on phage
B22: CSWSARCTHQDLC (peptide)
peptide: CSWSARCTHQDLC
modifications: linker 1-7-13 via TBMB
notes: on phage
B23: CSHPYRCTHQDLC (peptide)
peptide: CSHPYRCTHQDLC
modifications: linker 1-7-13 via TBMB (inferred)
notes: on phage
B24: CSWAARCTHQDLC (peptide)
peptide: CSWAARCTHQDLC
modifications: linker 1-7-13 via TBMB
notes: on phage
B25: CSWPYKCTHQDLC (peptide)
peptide: CSWPYKCTHQDLC
modifications: linker 1-7-13 via TBMB
notes: on phage
B26: CSWPYRCTHQDLC (peptide)
peptide: CSWPYRCTHQDLC
modifications: linker 1-7-13 via TBMB
notes: on phage
B27: CSYPIRCTHQDLC (peptide)
peptide: CSYPIRCTHQDLC
modifications: linker 1-7-13 via TBMB
notes: on phage
B28: CSMPYRCTHQDLC (peptide)
peptide: CSMPYRCTHQDLC
modifications: linker 1-7-13 via TBMB
notes: on phage
B29: CSYPFRCTHQDLC (peptide)
peptide: CSYPFRCTHQDLC
modifications: linker 1-7-13 via TBMB
notes: on phage
B30: CSHPFRCTHQDLC (peptide)
peptide: CSHPFRCTHQDLC
modifications: linker 1-7-13 via TBMB (inferred)
notes: on phage
B31: CSYPWRCTHQDLC (peptide)
peptide: CSYPWRCTHQDLC
modifications: linker 1-7-13 via TBMB
notes: on phage
B32: CSWHARCTHQDLC (peptide)
peptide: CSWHARCTHQDLC
modifications: linker 1-7-13 via TBMB
notes: on phage
B33: CSLPIRCTHQDLC (peptide)
peptide: CSLPIRCTHQDLC
modifications: linker 1-7-13 via TBMB
notes: on phage
B34: CSWSYRCTHQDLC (peptide)
peptide: CSWSYRCTHQDLC
modifications: linker 1-7-13 via TBMB
notes: on phage
B35: CSYPYRCTHQDLC (peptide)
peptide: CSYPYRCTHQDLC
modifications: linker 1-7-13 via TBMB
notes: on phage
B36: CSWPSRCTHQDLC (peptide)
peptide: CSWPSRCTHQDLC
modifications: linker 1-7-13 via TBMB
notes: on phage
B37: CSWWARCTHQDLC (peptide)
peptide: CSWWARCTHQDLC
modifications: linker 1-7-13 via TBMB
notes: on phage
B38: CSFSYKCTHQDLC (peptide)
peptide: CSFSYKCTHQDLC
modifications: linker 1-7-13 via TBMB (inferred)
notes: on phage
B39: CSWQARCTHQDLC (peptide)
peptide: CSWQARCTHQDLC
modifications: linker 1-7-13 via TBMB
notes: on phage
B40: CSWPFRCTHQDLC (peptide)
peptide: CSWPFRCTHQDLC
modifications: linker 1-7-13 via TBMB
notes: on phage
B41: CSIPFKCTHQDLC (peptide)
peptide: CSIPFKCTHQDLC
modifications: linker 1-7-13 via TBMB (inferred)
notes: on phage
B42: CSQVVGCTHQDLC (peptide)
peptide: CSQVVGCTHQDLC
modifications: linker 1-7-13 via TBMB
notes: on phage

Each binder was assayed against T1, human plasma Kallikrein (human, UniProt P03952 20-638) (assay: enzyme inhibition).
T1 construct: also called hPK; human PK
T1 sequence (P03952 20-638 limits assumed): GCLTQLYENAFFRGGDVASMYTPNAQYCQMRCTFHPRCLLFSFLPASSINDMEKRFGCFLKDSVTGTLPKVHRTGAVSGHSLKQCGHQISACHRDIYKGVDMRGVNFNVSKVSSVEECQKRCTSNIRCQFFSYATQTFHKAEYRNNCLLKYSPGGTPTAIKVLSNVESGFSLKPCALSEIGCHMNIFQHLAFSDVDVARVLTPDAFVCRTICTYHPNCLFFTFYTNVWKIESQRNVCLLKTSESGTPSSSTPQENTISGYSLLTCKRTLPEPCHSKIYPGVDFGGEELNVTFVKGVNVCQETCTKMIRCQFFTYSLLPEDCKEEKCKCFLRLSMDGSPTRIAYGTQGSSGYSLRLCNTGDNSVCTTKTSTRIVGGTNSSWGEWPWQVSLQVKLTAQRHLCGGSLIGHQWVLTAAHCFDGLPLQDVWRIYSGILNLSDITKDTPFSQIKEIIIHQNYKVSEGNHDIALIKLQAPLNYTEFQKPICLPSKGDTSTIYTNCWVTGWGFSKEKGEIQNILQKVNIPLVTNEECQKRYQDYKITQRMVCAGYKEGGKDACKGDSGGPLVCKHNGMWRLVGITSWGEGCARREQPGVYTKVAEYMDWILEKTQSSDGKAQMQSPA
Experimental: (§1) Functional enzyme assays were conducted in 10 mM Tris HCl, 150 mM NaCl, 10 mM MgCl2, 1 mM CaCl₂) and 1 mg/mL BSA (all Sigma UK) pH7.4 at 25° C. in solid black 96 well plates. […] Release of AMC was measured using a Pherastar FS (BMG Labtech), excitation 360 nm, emission 460 nm. The rate of the linear phase of the reaction, typically 5 to 45 minutes, was calculated in MARS data analysis software (BMG labtech). The rate was then used to calculate the IC50 and Ki in Prism (GraphPad).

Row | Binder | Ki | IC50
1 | B1 | 4.98 nM | 
2 | B2 | 6.9 nM | 
3 | B3 | 5.8 nM | 
4 | B4 | 3.3 nM | 
5 | B5 | 0.5 nM | 
6 | B6 | 1280 nM | 
7 | B7 | 0.49 nM | 
8 | B8 |  | 0.15 nM
9 | B9 | 0.4 nM | 
10 | B10 |  | 0.082 nM
11 | B11 |  | 0.16 nM
12 | B12 | 1.2 nM | 
13 | B13 | 181 nM | 
14 | B14 | 2.2 nM | 
15 | B15 | 8.1 nM | 
16 | B16 | 0.147 nM | 
17 | B17 | 24.8 nM | 

What follows are binders tested against T2, rat plasma Kallikrein (rat, UniProt P14272 391-638, limits assumed) (assay: enzyme inhibition).
T2 construct: domain: catalytic domain; also called rPK; rat PK
T2 sequence (P14272 391-638 limits assumed): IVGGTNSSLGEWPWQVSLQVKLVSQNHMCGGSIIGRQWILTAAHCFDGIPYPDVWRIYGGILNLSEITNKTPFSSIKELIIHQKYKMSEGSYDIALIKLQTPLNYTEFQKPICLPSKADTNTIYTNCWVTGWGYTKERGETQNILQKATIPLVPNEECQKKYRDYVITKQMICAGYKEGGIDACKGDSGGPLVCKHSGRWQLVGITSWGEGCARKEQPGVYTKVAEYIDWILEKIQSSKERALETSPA
Experimental: as §1

Row | Binder | IC50
18 | B8 | 6.12 nM
19 | B10 | 0.87 nM
20 | B11 | 1.09 nM

Each binder was assayed against T1, human plasma Kallikrein (assay: phage binding assay).
Experimental: Library transformant colonies, or selection output colonies, were picked and grown as individual cultures in 2TY broth containing selective antibiotic. The picked colonies were DNA-sequenced using a QIAgen PyroMark Q96 DNA sequencer to reveal the amino-acid substitution present in each clone, and were assayed for human plasma Kallikrein binding as follows. The phage-containing supernatant was harvested from the culture and phage were cyclised with tris bromomethyl benzene (TBMB) based on the methods of Heinis et al (Nature Chemical Biology vol. 5 pp 502-507 (2009)). The purified phage from this process were assayed for binding to biotinylated human plasma Kallikrein using a homogeneous plate-based binding assay; assay read-out measured on a BMG Labtech Pherastar FS plate reader. The quantitative binding data from duplicate assay samples was averaged (mean) and expressed as signal:background. […] The assay data was correlated with the peptide sequences.
Selections against human plasma Kallikrein were performed at a variety of stringencies (see Phage selections' in Methods above). All output sequences were identified and analysed for target binding (see ‘Randomisation of peptide domains—Assay of binding of individual clones’ in Methods above). Table 17 lists each unique sequence, its relative abundance in the selection output (frequency), and a rank number according to target binding strength.

Row | Binder | RANK (Kallikrein binding)
21 | B18 | 41
22 | B19 | 40
23 | B20 | 1
24 | B21 | 4
25 | B22 | 19
26 | B23 | 8
27 | B24 | 7
28 | B25 | 28
29 | B26 | 10
30 | B27 | 18
31 | B28 | 31
32 | B29 | 21
33 | B30 | 9
34 | B31 | 33
35 | B32 | 24
36 | B33 | 30
37 | B34 | 36
38 | B35 | 26
39 | B36 | 2
40 | B37 | 27
41 | B38 | 35
42 | B39 | 42
43 | B40 | 14
44 | B41 | 32
45 | B42 | 38

Molecular target: T1, human plasma Kallikrein
Assay: phage binding assay
Remark: another data set of the same source

Row | Binder | BINDING ASSAY SIGNAL
46 | B20 | 110
